B1: Protein GLUTAMINE DUMPER 1 (Arabidopsis thaliana (Mouse-ear cress)), O81775 (parent)
chain: MRPLSVQSKFEDVATSTSVNHHGVTPQSPWHSPVPYLFGGLAAMLGLIAFALLILACSYWRLSSSGEEDGQNVDEEKESRSGDKAANGAYEEKFLVIMAGEDLPRYLATPAMKKCTCGGHEGKMVISQEESVAKEEEKMREGEEEKVKDTGETTTTSH
partner: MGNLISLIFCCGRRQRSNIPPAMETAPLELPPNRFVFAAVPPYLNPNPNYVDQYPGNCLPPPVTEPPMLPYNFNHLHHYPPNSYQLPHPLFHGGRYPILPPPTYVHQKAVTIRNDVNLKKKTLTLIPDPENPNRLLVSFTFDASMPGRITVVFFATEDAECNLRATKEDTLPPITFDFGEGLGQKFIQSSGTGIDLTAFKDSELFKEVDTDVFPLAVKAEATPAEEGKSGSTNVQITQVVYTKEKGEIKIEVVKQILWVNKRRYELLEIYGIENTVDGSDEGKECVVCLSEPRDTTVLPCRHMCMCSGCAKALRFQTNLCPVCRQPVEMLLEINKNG
B2: Protein GLUTAMINE DUMPER 1 (Arabidopsis thaliana (Mouse-ear cress)), O81775 (parent)
chain: B1 chain
partner: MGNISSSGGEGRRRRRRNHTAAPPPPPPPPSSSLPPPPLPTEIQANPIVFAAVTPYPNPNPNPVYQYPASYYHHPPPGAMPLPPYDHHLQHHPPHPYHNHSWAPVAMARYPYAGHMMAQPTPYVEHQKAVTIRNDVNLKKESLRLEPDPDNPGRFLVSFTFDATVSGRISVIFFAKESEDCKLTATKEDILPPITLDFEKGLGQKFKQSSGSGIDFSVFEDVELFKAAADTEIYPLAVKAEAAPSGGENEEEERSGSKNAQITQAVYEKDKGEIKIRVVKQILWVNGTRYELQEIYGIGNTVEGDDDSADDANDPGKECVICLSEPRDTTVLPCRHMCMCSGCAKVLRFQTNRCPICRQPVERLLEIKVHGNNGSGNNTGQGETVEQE
B3: Probable E3 ubiquitin-protein ligase LOG2 (Arabidopsis thaliana (Mouse-ear cress)), Q9S752 (parent)
chain: B2 partner
partner: B1 chain

Variants of B1 are the subject of the first assay. The following applies: with lul1_arath LUL1, Q9LYW5.
Regarding MRPLSVQSKFEDVATSTSVNHHGVTPQSPWHSPVPYLFGGLAAMLGLIAFALLILACSYWRLSSSGEEDGQNVDEEKESRSGDKAANGAYEEKFLVIMAREDLPRYLATPAMKKCTCGGHEGKMVISQEESVAKEEEKMREGEEEKVKDTGETTTTSH [G100R], the “effect of a mutation on the interaction” value is on record as “disrupting interaction”.

Variants of B2 are the subject of a further assay. The note with it: with lofg2_arath LOG2, Q9S752.
For MRPLSVQSKFEDVATSTSVNHHGVTPQSPWHSPVPYLFGGLAAMLGLIAFALLILACSYWRLSSSGEEDGQNVDEEKESRSGDKAANGAYEEKFLVIMAREDLPRYLATPAMKKCTCGGHEGKMVISQEESVAKEEEKMREGEEEKVKDTGETTTTSH [G100R], the “effect of a mutation on the interaction” value is given as “disrupting interaction”.

Another assay covers variants of B3. The following applies: with gdu1_arath GDU1, O81775.
On to MANISSSGGEGRRRRRRNHTAAPPPPPPPPSSSLPPPPLPTEIQANPIVFAAVTPYPNPNPNPVYQYPASYYHHPPPGAMPLPPYDHHLQHHPPHPYHNHSWAPVAMARYPYAGHMMAQPTPYVEHQKAVTIRNDVNLKKESLRLEPDPDNPGRFLVSFTFDATVSGRISVIFFAKESEDCKLTATKEDILPPITLDFEKGLGQKFKQSSGSGIDFSVFEDVELFKAAADTEIYPLAVKAEAAPSGGENEEEERSGSKNAQITQAVYEKDKGEIKIRVVKQILWVNGTRYELQEIYGIGNTVEGDDDSADDANDPGKECVICLSEPRDTTVLPCRHMCMCSGCAKVLRFQTNRAPIARQPVERLLEIKVHGNNGSGNNTGQGETVEQE [G2A;C354A;C357A], for which the “effect of a mutation on the interaction” value is “decreasing interaction”.

Values taken from IntAct's records for PubMed 22291198.
